The target of test [1] is BG505 IDL trimer (HIV-1 strain BG505 (clade A)). Put plainly: negative-staining electron microscopy.
The target is the same in test [2]. The experiment in a line: cryo-EM structure.
The target in test [3] is JR-FL IDL trimer (HIV-1 strain JR-FL (clade B)). Put plainly: cryo-EM structure.
Test [4] has as its target WITO IDL trimer (HIV-1 strain WITO (clade B)). Put plainly: cryo-EM structure.

In PMC11459465 one finds stoichiometry N data, which are given here for 3 substances.

As for BG505 IDL trimer (complex), the stoichiometry N in test [1] and in test [2] was 3 in each case.
JR-FL IDL trimer (complex): the stoichiometry N – broadly, a count of units in the complex or per binding partner – in test [3] was found to be 3.
In turn, WITO IDL trimer (complex) came in with a stoichiometry N in test [4] of 3.
